Starred links: 1 amine or outer side, 2 acyl side, 3 side chain; linkers in the order of their positions; H or OH if unused. Positions of bridges follow the written chain, without caps; N, C: chain ends. Non-standard residues stand in square brackets, D forms with d. No end group written: not given here. TATA = O=C(CC[*:1])N1CN(C(=O)CC[*:2])CN(C(=O)CC[*:3])C1; 1Nal = N[C@@H](Cc1cccc2ccccc12)C(=O)O; Hyp = O=C(O)[C@@H]1C[C@@H](O)CN1; hArg = N=C(N)NCCCC[C@H](N)C(=O)O; Pen = CC(C)(S)[C@H](N)C(=O)O; hCys = N[C@@H](CCS)C(=O)O; βAla = NCCC(=O)O; Sar = CNCC(=O)O
B1: Acetate salt of PDC_1 (peptide)
peptide: [βAla][Sar][Sar][Sar][Sar][Sar][Sar][Sar][Sar][Sar][Sar]K[hArg]DCP[1Nal][dD][Pen]M[hArg]DWSTP[Hyp]WC-NH2
modifications: lactam 12-14; linker 15-19-29 via TATA; also: drug-linker INT_1 coupled, site not given here, acetate salt
B2: Acetate salt of PDC_2 (peptide)
peptide: [βAla][Sar][Sar][Sar][Sar][Sar][Sar][Sar][Sar][Sar][Sar]K[Sar]DCP[1Nal][dD][Pen]M[hArg]DWSTP[Hyp]WC-NH2
modifications: lactam 12-14; linker 15-19-29 via TATA; also: drug-linker INT_1 coupled, site not given here, acetate salt
B3: Acetate salt of PDC_3 (peptide)
peptide: [βAla][Sar][Sar][Sar][Sar][Sar][Sar][Sar][Sar][Sar][Sar]K[Sar]DCP[1Nal][dD][Pen]M[hArg]DWSTP[Hyp]W[hCys]
modifications: not fully specified (C-terminus); cysteine pairing not given here; also: further groups not given here, drug-linker INT_1 coupled, site not given here, acetate salt

Key:
Human Nectin-4 (human) [1] = target: Human Nectin-4 (human) (UniProt Q96NY8); assay: SPR (Biacore 8K), Nectin-4 amine-coupled on CM5 chip, compound as analyte, multi-cycle kinetics, 1:1 model
Human Nectin-4 (human) [2] = target: Human Nectin-4 (human) (UniProt Q96NY8); assay: SPR (Biacore 8K), Nectin-4 amine-coupled on CM5 chip, compound as analyte, multi-cycle kinetics, 1:1 model; average of two tests

Chain of Human Nectin-4 (human) (Q96NY8 32-349 limits assumed): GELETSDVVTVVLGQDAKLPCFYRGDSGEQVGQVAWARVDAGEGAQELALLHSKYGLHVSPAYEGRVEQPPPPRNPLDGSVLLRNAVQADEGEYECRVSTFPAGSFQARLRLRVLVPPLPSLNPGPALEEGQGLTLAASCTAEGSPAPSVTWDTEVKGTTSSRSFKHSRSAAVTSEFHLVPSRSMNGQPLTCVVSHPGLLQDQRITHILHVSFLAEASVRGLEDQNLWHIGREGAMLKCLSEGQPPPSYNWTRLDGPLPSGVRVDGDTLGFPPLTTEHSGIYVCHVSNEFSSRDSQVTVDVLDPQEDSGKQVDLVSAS

| Binder | Kd (Human Nectin-4 (human) [1]) | Kd (Human Nectin-4 (human) [2]) |
| --- | --- | --- |
| B1 | 1.4 nM |  |
| B2 |  | 0.43 nM |
| B3 | 4.13 nM |  |

Source: US20240424120A1
